Data: patent US20100034812A1
Read-outs that look alike come from different tables or passages of the source.

Columns and labels:
[1] = target: recombinant birch pollen allergen Bet v 1 (Betula verrucosa) (UniProt P15494); assay: ELISA, IgE of control serum on rBet v 1 after clone 10
[2] = target: recombinant birch pollen allergen Bet v 1 (Betula verrucosa) (UniProt P15494); assay: ELISA, IgE of control serum on rBet v 1 after clone 13
[3] = target: recombinant birch pollen allergen Bet v 1 (Betula verrucosa) (UniProt P15494); assay: ELISA, IgE of non-allergic control serum on rBet v 1
[4] = target: recombinant birch pollen allergen Bet v 1 (Betula verrucosa) (UniProt P15494); assay: ELISA, IgE of control serum on rBet v 1 after clone 4
[5] = target: recombinant birch pollen allergen Bet v 1 (Betula verrucosa) (UniProt P15494); assay: ELISA, IgE of control serum on rBet v 1 after clone 2
[6] = target: recombinant birch pollen allergen Bet v 1 (Betula verrucosa) (UniProt P15494); assay: ELISA, IgE of control serum on rBet v 1 after clone 12
[7] = target: recombinant birch pollen allergen Bet v 1 (Betula verrucosa) (UniProt P15494); assay: ELISA, IgE of control serum on rBet v 1 after clone 4; remark: listed apart in the source
[8] = target: recombinant birch pollen allergen Bet v 1 (Betula verrucosa) (UniProt P15494); assay: ELISA, IgE of control serum on rBet v 1 after clone 2; remark: listed apart in the source
[9] = target: recombinant birch pollen allergen Bet v 1 (Betula verrucosa) (UniProt P15494); assay: ELISA, IgE of non-allergic control serum on rBet v 1; remark: listed apart in the source
[10] = target: recombinant birch pollen allergen Bet v 1 (Betula verrucosa) (UniProt P15494); assay: ELISA, IgE of control serum on rBet v 1 after clone 12; remark: listed apart in the source
[11] = target: recombinant birch pollen allergen Bet v 1 (Betula verrucosa) (UniProt P15494); assay: ELISA, IgE of control serum on rBet v 1 after clone 10; remark: listed apart in the source
[12] = target: recombinant birch pollen allergen Bet v 1 (Betula verrucosa) (UniProt P15494); assay: ELISA, IgE of control serum on rBet v 1 after clone 13; remark: listed apart in the source

UniProt P15494, sequence (P15494 2-160 limits assumed): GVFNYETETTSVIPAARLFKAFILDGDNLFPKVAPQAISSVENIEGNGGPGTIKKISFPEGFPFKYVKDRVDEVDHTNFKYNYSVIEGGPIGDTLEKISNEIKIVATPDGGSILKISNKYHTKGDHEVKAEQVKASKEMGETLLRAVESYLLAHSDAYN

Substance: serum from a non-allergic person (antibody)
- OD with mAb [1]: 0.09 OD
- OD with mAb [2]: 0.08 OD
- OD without mAb [3]: 0.03 OD
- OD with mAb [4]: 0.04 OD
- OD with mAb [5]: 0.03 OD
- OD with mAb [6]: 0.04 OD
- OD with mAb [7]: 0.09 OD
- OD with mAb [8]: 0.09 OD
- OD without mAb [9]: 0.06 OD
- OD with mAb [10]: 0.14 OD
- OD with mAb [11]: 0.03 OD
- OD with mAb [12]: 0.15 OD
